1 substance from patent US20050186604A1 can be followed below.

The target of the assay is Myc transcription factor (UniProt P01106). The experiment in a line: cell-based or functional assay.
UniProt P01106, sequence (P01106 16-454 limits assumed): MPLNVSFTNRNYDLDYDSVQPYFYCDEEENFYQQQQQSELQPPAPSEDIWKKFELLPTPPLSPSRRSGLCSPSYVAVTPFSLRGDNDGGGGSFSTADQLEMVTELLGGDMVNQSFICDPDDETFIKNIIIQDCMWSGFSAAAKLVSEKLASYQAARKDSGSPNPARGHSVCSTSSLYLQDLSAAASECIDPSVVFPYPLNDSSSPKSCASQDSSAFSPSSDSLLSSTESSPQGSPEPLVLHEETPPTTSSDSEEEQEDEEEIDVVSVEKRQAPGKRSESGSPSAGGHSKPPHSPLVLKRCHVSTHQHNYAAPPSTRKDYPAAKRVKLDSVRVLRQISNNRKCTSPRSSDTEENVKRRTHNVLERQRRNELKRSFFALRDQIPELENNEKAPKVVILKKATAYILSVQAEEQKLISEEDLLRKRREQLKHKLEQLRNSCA

HTLV-1 p30^II (HA), sequence (P0C214 whole entry): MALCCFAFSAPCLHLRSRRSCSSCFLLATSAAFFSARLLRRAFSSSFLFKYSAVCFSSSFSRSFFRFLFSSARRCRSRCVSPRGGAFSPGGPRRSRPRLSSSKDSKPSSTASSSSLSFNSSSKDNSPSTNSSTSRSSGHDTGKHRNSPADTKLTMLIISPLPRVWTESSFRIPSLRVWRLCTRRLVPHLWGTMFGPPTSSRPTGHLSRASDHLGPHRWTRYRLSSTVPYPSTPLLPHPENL

Regarding HTLV-1 p30^II (HA), the trans-activation from the synthetic M4-tk-luc promoter (luciferase reporter, four tandem E-boxes) amounted to 13 fold and the trans-activation from the synthetic M4-tk-luc promoter (luciferase reporter, four tandem E-boxes), higher p30^II concentrations was in the range of 5 to 7 fold.
